From patent publication US20220088146A1, “Melanocortin Receptor-Specific Peptide Formulations and Methods for Gastrointestinal Tract-Specific Delivery” (Palatin Technologies, Inc., priority 2018, published 2022)
Bridge positions count the residues as written; N and C are the ends. Square brackets hold non-standard residues; d marks the D form. Nle = CCCC[C@H](N)C(=O)O; Dab = NCC[C@H](N)C(=O)O; Dap = NC[C@H](N)C(=O)O

Legend:
[1] = target: human melanocortin-1 receptor (human) (UniProt Q01726); assay: cell-based or functional assay
Chain of human melanocortin-1 receptor (human) (Q01726 whole entry): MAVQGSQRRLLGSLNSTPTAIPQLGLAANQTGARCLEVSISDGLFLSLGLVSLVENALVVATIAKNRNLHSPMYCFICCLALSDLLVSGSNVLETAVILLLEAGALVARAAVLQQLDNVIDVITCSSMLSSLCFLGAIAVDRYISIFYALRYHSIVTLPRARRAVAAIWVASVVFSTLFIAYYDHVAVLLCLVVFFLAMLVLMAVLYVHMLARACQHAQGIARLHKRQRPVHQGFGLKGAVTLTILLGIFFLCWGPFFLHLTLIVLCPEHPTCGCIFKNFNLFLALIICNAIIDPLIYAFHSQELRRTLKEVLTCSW

[2] = target: human melanocortin-1 receptor (human) (UniProt Q01726); assay: [I125]-NDP-α-MSH competition, hMC1r HEK-293 membranes
[3] = target: human melanocortin-4 receptor (human) (UniProt P32245); assay: [I125]-NDP-α-MSH competition, hMC4r HEK-293 membranes
Chain of human melanocortin-4 receptor (human) (P32245 whole entry): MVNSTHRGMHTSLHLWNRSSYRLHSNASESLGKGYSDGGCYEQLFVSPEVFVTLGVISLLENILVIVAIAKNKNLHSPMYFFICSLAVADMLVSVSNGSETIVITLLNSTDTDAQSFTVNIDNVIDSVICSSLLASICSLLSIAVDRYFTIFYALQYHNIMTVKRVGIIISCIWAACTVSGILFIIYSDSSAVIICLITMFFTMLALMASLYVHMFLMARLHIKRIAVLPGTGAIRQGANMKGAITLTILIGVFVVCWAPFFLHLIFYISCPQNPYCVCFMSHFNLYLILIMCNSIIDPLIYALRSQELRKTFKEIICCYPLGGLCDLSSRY

| MC-1 EC50 (average; cAMP HBL) [1] [nM] | MC-1 Emax (average; cAMP HBL) [1] [%] | Ki [2] [nM] | Ki [3] [nM] | Binder |
| --- | --- | --- | --- | --- |
| 0.195 | 88 | 2 | 1320 | Ac-[Nle]DH[dF]R[Dap]W-NH2 (lactam 2-6; SMILES CCCC[C@H](NC(C)=O)C(=O)N[C@H]1CC(=O)NC[C@@H](C(=O)N[C@@H](Cc2c[nH]c3ccccc23)C(N)=O)NC(=O)[C@H](CCCNC(=N)N)NC(=O)[C@@H](Cc2ccccc2)NC(=O)[C@H](Cc2c[nH]cn2)NC1=O) [Ac-Nle-cyclo(Asp-His-D-Phe-Arg-Dap)-Trp-NH2] |
| 0.08 | 97 | 2 | 7480 | Ac-[Nle]EH[dF]R[Dab]A-NH2 (lactam 2-6) [Ac-Nle-cyclo(Glu-His-D-Phe-Arg-Dab)-Ala-NH2] |
| 0.115 | 72 | 0.8 | 10000 | Ac-[Nle]EH[dF]A[Dab]W-NH2 (lactam 2-6; SMILES CCCC[C@H](NC(C)=O)C(=O)N[C@H]1CCC(=O)NCC[C@@H](C(=O)N[C@@H](Cc2c[nH]c3ccccc23)C(N)=O)NC(=O)[C@H](C)NC(=O)[C@@H](Cc2ccccc2)NC(=O)[C@H](Cc2c[nH]cn2)NC1=O) [Ac-Nle-cyclo(Glu-His-D-Phe-Ala-Dab)-Trp-NH2] |
| 4 | 59 | 9 | 10000 | Ac-[Nle]EH[dF]G[Dab]W-NH2 (lactam 2-6; SMILES CCCC[C@H](NC(C)=O)C(=O)N[C@H]1CCC(=O)NCC[C@@H](C(=O)N[C@@H](Cc2c[nH]c3ccccc23)C(N)=O)NC(=O)CNC(=O)[C@@H](Cc2ccccc2)NC(=O)[C@H](Cc2c[nH]cn2)NC1=O) [Ac-Nle-cyclo(Glu-His-D-Phe-Gly-Dab)-Trp-NH2] |
| 0.18 | 97 | 3 | 185 | Ac-[Nle]EP[dF]R[Dab]W-NH2 (lactam 2-6; SMILES CCCC[C@H](NC(C)=O)C(=O)N[C@H]1CCC(=O)NCC[C@@H](C(=O)N[C@@H](Cc2c[nH]c3ccccc23)C(N)=O)NC(=O)[C@H](CCCNC(=N)N)NC(=O)[C@@H](Cc2ccccc2)NC(=O)[C@@H]2CCCN2C1=O) [Ac-Nle-cyclo(Glu-Pro-D-Phe-Arg-Dab)-Trp-NH2] |
| 0.175 | 91 | 2 | 7380 | Ac-[Nle]EH[dF]R[Dab]K-NH2 (lactam 2-6; SMILES CCCC[C@H](NC(C)=O)C(=O)N[C@H]1CCC(=O)NCC[C@@H](C(=O)N[C@@H](CCCCN)C(N)=O)NC(=O)[C@H](CCCNC(=N)N)NC(=O)[C@@H](Cc2ccccc2)NC(=O)[C@H](Cc2c[nH]cn2)NC1=O) [Ac-Nle-cyclo(Glu-His-D-Phe-Arg-Dab)-Lys-NH2] |
